Target: T1, human Allergin-1L (expressed on CHO cells) (human, UniProt Q7Z6M3 20-343)
T1 construct: also called MILR1; human Allergin-1L-expressing CHO cell lines
T1 sequence: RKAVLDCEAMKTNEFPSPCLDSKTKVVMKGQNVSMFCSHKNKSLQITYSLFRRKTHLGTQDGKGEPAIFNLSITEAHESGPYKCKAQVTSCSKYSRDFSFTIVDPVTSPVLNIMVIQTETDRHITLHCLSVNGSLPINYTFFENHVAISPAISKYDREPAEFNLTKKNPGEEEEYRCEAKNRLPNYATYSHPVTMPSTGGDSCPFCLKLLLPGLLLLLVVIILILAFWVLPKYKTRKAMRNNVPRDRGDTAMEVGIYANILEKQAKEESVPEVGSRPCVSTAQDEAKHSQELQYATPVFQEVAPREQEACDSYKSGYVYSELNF
Assay: flow cytometry, binding to Allergin-1L

| Binder | EC50 [nM] |
| --- | --- |
| anti-Allergin-1 bispecific antibody #15_h_optv2 clone (bispecific antibody, human IgG1, kappa, L234A L235A, N297A, Morrison form: Fab Pro1571, scFv Pro2281) heavy: EVQLVESGGGLVQPGGSLRLSCAASGFSLSSHAMSWVRQAPGKGLEWIGTISTIDTTYYASWAKGRFTISRDNSKNTVYLQMNSLRAEDTAVYYCARLSELYTTNSYYSRWGQGTLVTVSSASTKGPSVFPLAPSSKSTSGGTAALGCLVKDYFPEPVTVSWNSGALTSGVHTFPAVLQSSGLYSLSSVVTVPSSSLGTQTYICNVNHKPSNTKVDKRVEPKSCDKTHTCPPCPAPEAAGGPSVFLFPPKPKDTLMISRTPEVTCVVVDVSHEDPEVKFNWYVDGVEVHNAKTKPREEQYASTYRVVSVLTVLHQDWLNGKEYKCKVSNKALPAPIEKTISKAKGQPREPQVYTLPPSREEMTKNQVSLTCLVKGFYPSDIAVEWESNGQPENNYKTTPPVLDSDGSFFLYSKLTVDKSRWQQGNVFSCSVMHEALHNHYTQKSLSLSPGGGGGSGGGGSAIQMTQSPSSLSARVGDRVTITCQSSESVYDNNYLSWYQQKPGKAPKLLIYDASRLASGVPSRFSGSGSGTQFTLTISSLQPEDFATYYCLGGYDSSGWYAAFGTGTKVTVLGGGGGSGGGGSGGGGSGGGGSEVQLVESGGGLVQPGGSLRLSCAASGFSLTIYTITWVRQAPGKGLEWIGTINSYGNTYYSTWAKGRFTISRDNSKNTVYLQMNSLRAEDTAVYYCARGYVDSDWYLNIWGQGTLVTVSS light: DIQMTQSPSSLSASVGDRVTITCQASESIGSLLAWYQQKPGKAPKLLIYRASTLESGVPSRFSGSGSGTDFTLTISSLQPEDFATYYCQSYHYSSSSSYAAFGQGTKVEIKRTVAAPSVFIFPPSDEQLKSGTASVVCLLNNFYPREAKVQWKVDNALQSGNSQESVTEQDSKDSTYSLSSTLTLSKADYEKHKVYACEVTHQGLSSPVTKSFNRGEC | 2.41 |
| anti-Allergin-1 bispecific antibody #15_h_opt clone (bispecific antibody, human IgG1, kappa, L234A L235A, N297A, Morrison form: Fab Pro1571, scFv Pro2282) heavy: EVQLVESGGGLVQPGGSLRLSCAASGFSLSSHAMSWVRQAPGKGLEWIGTISTIDTTYYASWAKGRFTISRDNSKNTVYLQMNSLRAEDTAVYYCARLSELYTTNSYYSRWGQGTLVTVSSASTKGPSVFPLAPSSKSTSGGTAALGCLVKDYFPEPVTVSWNSGALTSGVHTFPAVLQSSGLYSLSSVVTVPSSSLGTQTYICNVNHKPSNTKVDKRVEPKSCDKTHTCPPCPAPEAAGGPSVFLFPPKPKDTLMISRTPEVTCVVVDVSHEDPEVKFNWYVDGVEVHNAKTKPREEQYASTYRVVSVLTVLHQDWLNGKEYKCKVSNKALPAPIEKTISKAKGQPREPQVYTLPPSREEMTKNQVSLTCLVKGFYPSDIAVEWESNGQPENNYKTTPPVLDSDGSFFLYSKLTVDKSRWQQGNVFSCSVMHEALHNHYTQKSLSLSPGGGGGSGGGGSAIQMTQSPSSLSARVGDRVTITCQSSESVYDNNYLSWYQQKPGKAPKLLIYDASRLASGVPSRFSGSGSGTQFTLTISSLQPEDFATYYCLGGYDSSGWYAAFGCGTKVTVLGGGGGSGGGGSGGGGSGGGGSEVQLVESGGGLVQPGGSLRLSCAASGFSLTIYTITWVRQAPGKCLEWIGTINSYGNTYYSTWAKGRFTISRDNSKNTVYLQMNSLRAEDTAVYYCARGYVDSDWYLNIWGQGTLVTVSS light: DIQMTQSPSSLSASVGDRVTITCQASESIGSLLAWYQQKPGKAPKLLIYRASTLESGVPSRFSGSGSGTDFTLTISSLQPEDFATYYCQSYHYSSSSSYAAFGQGTKVEIKRTVAAPSVFIFPPSDEQLKSGTASVVCLLNNFYPREAKVQWKVDNALQSGNSQESVTEQDSKDSTYSLSSTLTLSKADYEKHKVYACEVTHQGLSSPVTKSFNRGEC | 2.58 |
| anti-Allergin-1 bispecific antibody #15_h clone (bispecific antibody, human IgG1, kappa, L234A L235A, N297A, Morrison form antibody: Fab from Pro1571 (S2-D), scFv from Pro1588 (S1-A) on the heavy chain C-terminus) heavy: EVQLVESGGGLVQPGGSLRLSCAASGFSLSSHAMSWVRQAPGKGLEWIGTISTIDTTYYASWAKGRFTISRDNSKNTVYLQMNSLRAEDTAVYYCARLSELYTTNSYYSRWGQGTLVTVSSASTKGPSVFPLAPSSKSTSGGTAALGCLVKDYFPEPVTVSWNSGALTSGVHTFPAVLQSSGLYSLSSVVTVPSSSLGTQTYICNVNHKPSNTKVDKRVEPKSCDKTHTCPPCPAPEAAGGPSVFLFPPKPKDTLMISRTPEVTCVVVDVSHEDPEVKFNWYVDGVEVHNAKTKPREEQYASTYRVVSVLTVLHQDWLNGKEYKCKVSNKALPAPIEKTISKAKGQPREPQVYTLPPSREEMTKNQVSLTCLVKGFYPSDIAVEWESNGQPENNYKTTPPVLDSDGSFFLYSKLTVDKSRWQQGNVFSCSVMHEALHNHYTQKSLSLSPGGGGGSGGGGSDIQMTQSPSSLSASVGDRVTITCQSSESVYDNNYLSWYQQKPGKAPKLLIYDASRLASGVPSRFSGSGSGTDFTLTISSLQPEDFATYYCLGGYDSSGWYAAFGTGTKVTVLGGGGGSGGGGSGGGGSGGGGSEVQLVESGGGLVQPGGSLRLSCAASGFSLTIYTITWVRQAPGKGLEWIGTINSYGNTYYSTWAKGRFTISRDNSKNTVYLQMNSLRAEDTAVYYCARGYVDSDWYLNIWGQGTLVTVSS light: DIQMTQSPSSLSASVGDRVTITCQASESIGSLLAWYQQKPGKAPKLLIYRASTLESGVPSRFSGSGSGTDFTLTISSLQPEDFATYYCQSYHYSSSSSYAAFGQGTKVEIKRTVAAPSVFIFPPSDEQLKSGTASVVCLLNNFYPREAKVQWKVDNALQSGNSQESVTEQDSKDSTYSLSSTLTLSKADYEKHKVYACEVTHQGLSSPVTKSFNRGEC | 2.37 |

Target: T1, human Allergin-1L (expressed on CHO …)
Assay: selected on binding by CELISA and SPR (Example 5)
Protocol: The purified humanized scFv was analyzed for binding to CHO cells stably expressing human Allergin-1L and monkey Allergin-1, by CELISA, respectively. In detail, the CHO cells were seeded in 96-well plates, to which diluted humanized scFv was added, and which were incubated at 37° C. After washing the CHO cells, to which diluted HRP-labeled Protein L was added, and which were incubated again at 37° C. After washing the CHO cells again, to which HRP chromogenic substrate was added, and which were incubated at room temperature, and then in which absorbance was measured. As a result, the bindings to human Allergin-1L and monkey Allergin-1 were confirmed in several clones.
Furthermore, for each humanized scFv, the binding to Fc-fused human Allergin-1L recombinant protein was analyzed by SPR method. In detail, Fc-fused human Allergin-1L recombinant protein was immobilized on a sensor chip, followed by flowing humanized scFv as an analyte into a flow cell. As a result, the bindings to human Allergin-1L were confirmed in several clones.

| Binder | binding result |
| --- | --- |
| humanized scFv Pro1751 (scFv, V domains shown, A single-chain Fv) VH: EVQLVESGGGLVQPGGSLRLSCAASGIDFSSYYDMCWVRQAPGKCLEWIGCIYTGSVGELYYASWAKGRFTISRDNSKNTVYLQMNSLRAEDTAVYYCARRGSGVDDYYFNLWGQGTLVTVSS VL: DIQMTQSPSSLSASVGDRVTITCQSSQSVDNNNWLAWYQQKPGKAPKLLIYDASTLASGVPSRFSGSGSGTDFTLTISSLQPEDFATYYCQGTYYTTDWWNSFGCGTKVTVLG | binds |
| humanized scFv Pro1586 (scFv, V domains shown, A single-chain Fv) VH: EVQLVESGGGLVQPGGSLRLSCAASGIDLSYYAMNWVRQAPGKGLEWIGMIVGGGITFYANWAKGRFTISRDNSKNTVYLQMNSLRAEDTAVYYCAVGSDGGISDFNIWGQGTLVTVSS VL: DIQMTQSPSSLSASVGDRVTITCQASQSISSYLAWYQQKPGKAPKLLIYRASTLASGVPSRFSGSGSGTDFTLTISSLQPEDFATYYCQQAYSLSNVDNFFGTGTKVTVLG | binds |
| humanized scFv Pro1571 (scFv, V domains shown, A single-chain Fv) VH: EVQLVESGGGLVQPGGSLRLSCAASGFSLSSHAMSWVRQAPGKGLEWIGTISTIDTTYYASWAKGRFTISRDNSKNTVYLQMNSLRAEDTAVYYCARLSELYTTNSYYSRWGQGTLVTVSS VL: DIQMTQSPSSLSASVGDRVTITCQASESIGSLLAWYQQKPGKAPKLLIYRASTLESGVPSRFSGSGSGTDFTLTISSLQPEDFATYYCQSYHYSSSSSYAAFGTGTKVTVLG | binds |
| humanized scFv Pro1588 (scFv, V domains shown, A single-chain Fv) VH: EVQLVESGGGLVQPGGSLRLSCAASGFSLTIYTITWVRQAPGKGLEWIGTINSYGNTYYSTWAKGRFTISRDNSKNTVYLQMNSLRAEDTAVYYCARGYVDSDWYLNIWGQGTLVTVSS VL: DIQMTQSPSSLSASVGDRVTITCQSSESVYDNNYLSWYQQKPGKAPKLLIYDASRLASGVPSRFSGSGSGTDFTLTISSLQPEDFATYYCLGGYDSSGWYAAFGTGTKVTVLG | binds |
| humanized scFv Pro1565 (scFv, V domains shown, A single-chain Fv) VH: EVQLVESGGGLVQPGGSLRLSCAASGFSLSSHAMAWVRQAPGKGLEWIGYIWSGGITEYPSWAKGRFTISRDNSKNTVYLQMNSLRAEDTAVYYCARDVHIYGDIYAFDLWGQGTLVTVSS VL: DIQMTQSPSSLSASVGDRVTITCQASQDIESYLNWYQQKPGKAPKLLIYYASTLASGVPSRFSGSGSGTDFTLTISSLQPEDFATYYCQQSYSNSDVDKNVFGTGTKVTVLG | binds |
| humanized scFv Pro1742 (scFv, V domains shown, A single-chain Fv) VH: EVQLVESGGGLVQPGGSLRLSCAASGFSLNNYFMIWVRQAPGKCLEWIGIITSYHTTYFANWAKGRFTISRDNSKNTVYLQMNSLRAEDTAVYYCAPYDIYGYPTLWGQGTLVTVSS VL: DIQMTQSPSSLSASVGDRVTITCQASQSIGAYLSWYQQKPGKAPKLLIYEASTLASGVPSRFSGSGSGTDFTLTISSLQPEDFATYYCLGAYGRSSDDGTAFGCGTKVTVLG | binds |
| humanized scFv Pro1707 (scFv, V domains shown, A single-chain Fv) VH: ESQLVESGGGLVQPGGSLRLSCAVSGIDLSSYAVGWVRQAPGKGLEWIGIIGRSGSIYYASWAKGRFTISKDNSKNTVYLQMNSLRAEDTAVYYCARDVDSRPPTGSLWGQGTLVTVSS VL: DVQMTQSPSSLSASVGDRVTITCQASQNTYSNLDWYQQKPGKAPKLLIYQASKLASGVPSRFSGSGSGTDFTLTISSLQPEDFATYYCQSTSWGSSYVGGFGTGTKVTVLG | binds |
| humanized scFv Pro1570 (scFv, V domains shown, A single-chain Fv) VH: EVQLVESGGGLVQPGGSLRLSCAASGFSLSSYAMIWVRQAPGKGLEWIGFIDTDGHTEYANWAKGRFTISRDNSKNTVYLQMNSLRAEDTAVYYCARDGDHDYWGFNLWGQGTLVTVSS VL: DIQMTQSPSSLSASVGDRVTITCQASQNIYRNLVWYQQKPGKAPKLLIYGASELESGVPSRFSGSGSGTDFTLTISSLQPEDFATYYCLSTYYISSSDNSFGTGTKVTVLG | binds |

From patent publication US20260167698A1 (ONO PHARMACEUTICAL, published 2026)
